Experimental data reported in patent US20210130452A1 (Merck KGaA, published 2021).
Residue numbers refer to the chain shown, from its start. One block for each binder: values may come before it.

Columns and labels:
human IL-17A [1] = biological target: T1, human IL-17A (human, UniProt Q16552 24-155, biotinylated with Sulfo-NHS-LC-Biotin in the AlphaScreen assays only); test: AlphaScreen competition, hIL-17A - IL-17RA-Fc;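 further: receptor Fc-fusion plus Acceptor and streptavidin Donor beads incubated with the mixture for 1 h at room temperature before reading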
T1 construct: also called hIL-17A; recombinant human IL-17A
T1 sequence (Q16552 other isoform, or with tags, fused parts or gaps): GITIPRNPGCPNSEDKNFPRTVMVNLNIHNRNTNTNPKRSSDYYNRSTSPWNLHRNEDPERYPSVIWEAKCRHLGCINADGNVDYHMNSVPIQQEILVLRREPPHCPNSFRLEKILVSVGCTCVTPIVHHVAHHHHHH
Description: (§1) To this mixture, the IL-17RA or IL-17RC Fc-fusions, Acceptor beads and the streptavidin Donor beads were added and further incubated for 1 hour at RT.

human IL-17A [2] = biological target: T1, human IL-17A; test: cell-based or functional assay
human IL-17A [3] = biological target: T1, human IL-17A; test: SPR Biacore, hIL-17A on chip; periplasmic extract (*)
Description: (§2) Off-rates of the periplasmic extracts containing anti-IL-17 Nanobodies were measured by Surface Plasmon Resonance (SPR) using a Biacore T100 instrument. […] Periplasmic extracts containing IL-17 neutralizing Nanobodies were injected for 2 minutes at a flow rate of 45 μl/min to allow binding to chip-bound antigen. Next, binding buffer without periplasmic extracts was sent over the chip at the same flow rate to allow spontaneous dissociation of bound Nanobody. From the sensorgrams obtained for the different periplasmic extracts koff-values (k₄) were calculated.

[4] = biological target: T2, human IL-17A/F heterodimer (human, UniProt Q16552 24-155; Q96PD4 31-163, limits assumed, biotinylated with Sulfo-NHS-LC-Biotin in the AlphaScreen assays only); test: SPR Biacore, hIL-17A/F on chip; periplasmic extract (*); NB = no binding
T2 construct: also called hIL-17A/F
T2 sequence (Q16552 24-155 limits assumed, one chain of several): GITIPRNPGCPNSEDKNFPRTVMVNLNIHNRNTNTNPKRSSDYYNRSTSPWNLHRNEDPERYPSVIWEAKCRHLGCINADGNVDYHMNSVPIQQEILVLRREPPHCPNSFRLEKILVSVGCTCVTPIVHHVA
Description: as §2

human IL-17F [5] = biological target: T3, human IL-17F (human, UniProt Q96PD4 31-163, biotinylated with Sulfo-NHS-LC-Biotin in the AlphaScreen assays only); test: SPR Biacore, hIL-17F on chip; periplasmic extract (*); NB = no binding
T3 construct: also called hIL-17F; recombinant human IL-17F
T3 sequence: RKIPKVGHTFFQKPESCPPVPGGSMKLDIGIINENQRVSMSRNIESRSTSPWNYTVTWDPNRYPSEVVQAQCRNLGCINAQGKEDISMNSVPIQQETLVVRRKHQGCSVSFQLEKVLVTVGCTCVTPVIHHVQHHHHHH
Description: as §2

human IL-17A [6] = biological target: T1, human IL-17A; test: AlphaScreen competition, hIL-17A - IL-17RC-Fc;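 further: Read-out after 1 h at room temperature with the receptor Fc-fusion, Acceptor beads and streptavidin-coated Donor beads present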
Description: as §1

human IL-17A [7] = biological target: T4, human IL-17A (human, UniProt Q16552 24-155); test: AlphaScreen hIL-17A-IL-17RA; vs IL17MS13B03
T4 construct: secreted form made in Hek293 cells (GenBank U32659); also called hIL-17A; hIL17A
T4 sequence (Q16552 other isoform, or with tags, fused parts or gaps): as the sequence (Q16552 other isoform, or with tags, fused parts or gaps) above

human IL-17F [8] = biological target: T5, human IL-17F (human, UniProt Q96PD4 31-163); test: AlphaScreen hIL-17F-IL-17RC; vs IL17MS13B03
T5 construct: made in Hek293 cells (GenBank AF384857); also called hIL-17F; hIL17F
T5 sequence: T3 sequence

human IL-17A [9] = biological target: T4, human IL-17A; test: cell-based or functional assay
Cynomolgus monkey IL-17F [10] = biological target: T6, Cynomolgus monkey IL-17F (Cynomolgus monkey, UniProt G7P4V0 31-163); test: cell-based or functional assay
T6 sequence: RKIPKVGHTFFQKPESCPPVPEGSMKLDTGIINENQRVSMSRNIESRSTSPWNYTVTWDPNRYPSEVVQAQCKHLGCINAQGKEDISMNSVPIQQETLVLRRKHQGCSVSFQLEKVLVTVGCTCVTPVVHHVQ

human IL-17F [11] = biological target: T5, human IL-17F; test: cell-based or functional assay
[12] = biological target: T7, human IL-17A/F heterodimer (human, UniProt Q16552 24-155; Q96PD4 31-163, limits assumed); test: cell-based or functional assay
T7 sequence (Q16552 24-155 limits assumed, one chain of several): as the sequence (Q16552 24-155 limits assumed, one chain of several) above

human IL-17A [13] = biological target: T4, human IL-17A; test: SPR (Biacore) off-rate
Cynomolgus monkey IL-17F [14] = biological target: T6, Cynomolgus monkey IL-17F; test: SPR (Biacore) off-rate
Cynomolgus monkey IL-17A = biological target: T8, Cynomolgus monkey IL-17A (Cynomolgus monkey, UniProt A0A2K5TTB0 24-155); test: SPR (Biacore) off-rate
T8 construct: also called cyno IL-17A; cIL-17A
T8 sequence (A0A2K5TTB0 entry or part of it): as the sequence (Q16552 24-155 limits assumed, one chain of several) above, with T3A, P8S, N34S, I77V, N78K, P104R counted along it

human IL-17F [15] = biological target: T5, human IL-17F; test: SPR (Biacore) off-rate
[16] = biological target: T7, human IL-17A/F heterodimer; test: SPR (Biacore) off-rate
human IL-17F [17] = biological target: T5, human IL-17F; test: AlphaScreen hIL-17F-IL-17RC; vs IL17MS13E02

- IC50 (human IL-17A [1]): 0.325 nM
- IL-17A-induced IL-6 production in HT-1080 cells, Emax (human IL-17A [2]): 85.7%
- IL-17A-induced IL-6 production in HT-1080 cells, IC50 (human IL-17A [2]): 68.3 nM
- koff (human IL-17A [3]): 0.00045 s⁻¹
- binding result [4]: no binding
- binding result (human IL-17F [5]): no binding
- IC50 (human IL-17A [6]): 1.15 nM
B1: 01G03 (VHH)
VHH: EVQLVESGGGLVQAGGSLRLSCAASERTISNYDMGWFRQAPGKERELIAADISWSALNTNYADSVKGRFTISRDNAKNMVYLQMNNLKPEDTAVYYCAARRSGYASFDNWGQGTQVTVSS
notes: Class 1 Nanobody (anti-IL-17A); not shown: c-myc, His6 tag

- IC50 fold difference compared to WT (human IL-17A [7]): 1.2 fold
- IC50 fold difference compared to WT (human IL-17F [8]): 0.2 fold
B2: IL17MS3068 (VHH)
VHH: EVQLVESGGGLVQPGGSLRLSCAASGRASSINWMGWFRQAPGKEREFVAGIRWSDAYTEYADSVKGRFTISRDNSKNTVYLQMNSLRPEDTAVYYCVLDLSTVRYWGQGTLVTVSS
notes: variant of IL17MS13B03; Kabat numbering

- IC50 cell based assay hIL17A (human IL-17A [9]): 0.7 nM
- IC50 cell based assay cyno IL17F (Cynomolgus monkey IL-17F [10]): 13 nM
- IC50 cell based assay hIL17F (human IL-17F [11]): 35 nM
- IC50 cell based assay hIL17A/F [12]: 1.8 nM
- IC50 fold difference compared to WT (human IL-17A [7]): 1.3 fold
- koff (human IL-17A [13]): 0.000133 s⁻¹
- koff (Cynomolgus monkey IL-17F [14]): 0.00166 s⁻¹
- koff (Cynomolgus monkey IL-17A): 0.000126 s⁻¹
- koff (human IL-17F [15]): 0.00138 s⁻¹
- koff [16]: 0.000183 s⁻¹
- IC50 fold difference compared to WT (human IL-17F [8]): 0.2 fold
B3: IL17MS3067 (VHH)
VHH: B2 VHH with E1D
notes: as for B2

- IC50 fold difference vs WT (human IL-17F [17]): 0.3 fold
B4: IL17MS3071 (VHH)
VHH: EVQLVESGGGLVQPGGSLRLSCAASGRTYDALGWLRQAPGKEREFVAAISGSGDDTYYADSVKGRFTISRDNSKNTLYLQMNSLRPEDTAVYYCATRRGLYYVWDANDYENWGQGTLVTVSS
notes: variant of IL17MS13E02; Kabat numbering
